Biological target: T1, insoluble fibrin (fibrin plate, fibrin clot or tissue fibrin; species not stated for the experiment) (Homo sapiens (Human), UniProt P02671 36-630; P02675 45-491; P02679 27-433, Insoluble polymer of (alpha-beta-gamma)2 fibrin monomers, disulfide-bridged and possibly cross-linked by factor XIII. The letters give one copy of each chain only.)
T1 sequence (alpha): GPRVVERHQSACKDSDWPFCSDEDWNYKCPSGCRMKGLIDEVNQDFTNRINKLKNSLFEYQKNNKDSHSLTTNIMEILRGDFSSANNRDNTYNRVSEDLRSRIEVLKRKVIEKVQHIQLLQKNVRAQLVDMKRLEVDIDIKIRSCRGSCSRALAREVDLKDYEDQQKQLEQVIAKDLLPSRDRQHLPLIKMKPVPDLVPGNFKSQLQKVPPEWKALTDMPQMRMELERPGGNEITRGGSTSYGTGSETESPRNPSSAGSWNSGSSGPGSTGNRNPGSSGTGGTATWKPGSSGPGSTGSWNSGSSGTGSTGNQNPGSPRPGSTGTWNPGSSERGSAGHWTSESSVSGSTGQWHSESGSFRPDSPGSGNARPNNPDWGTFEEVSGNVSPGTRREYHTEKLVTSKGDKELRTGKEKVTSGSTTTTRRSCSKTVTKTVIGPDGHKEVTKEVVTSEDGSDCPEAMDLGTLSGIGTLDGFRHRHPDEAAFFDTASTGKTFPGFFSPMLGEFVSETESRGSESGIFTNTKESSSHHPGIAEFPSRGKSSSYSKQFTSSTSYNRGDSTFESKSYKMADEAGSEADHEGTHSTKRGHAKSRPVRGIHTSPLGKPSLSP
T1 sequence (beta): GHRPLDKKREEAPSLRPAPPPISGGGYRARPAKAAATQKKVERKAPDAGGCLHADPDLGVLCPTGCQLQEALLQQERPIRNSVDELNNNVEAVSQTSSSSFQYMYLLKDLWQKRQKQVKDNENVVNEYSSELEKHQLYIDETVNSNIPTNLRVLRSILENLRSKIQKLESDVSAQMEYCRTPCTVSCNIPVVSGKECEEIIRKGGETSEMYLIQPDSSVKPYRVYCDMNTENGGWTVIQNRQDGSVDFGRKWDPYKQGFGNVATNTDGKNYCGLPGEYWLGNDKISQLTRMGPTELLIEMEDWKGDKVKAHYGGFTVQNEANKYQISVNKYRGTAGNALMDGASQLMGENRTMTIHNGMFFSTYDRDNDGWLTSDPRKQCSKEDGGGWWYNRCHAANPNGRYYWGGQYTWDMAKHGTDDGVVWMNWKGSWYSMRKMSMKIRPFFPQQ
T1 sequence (gamma): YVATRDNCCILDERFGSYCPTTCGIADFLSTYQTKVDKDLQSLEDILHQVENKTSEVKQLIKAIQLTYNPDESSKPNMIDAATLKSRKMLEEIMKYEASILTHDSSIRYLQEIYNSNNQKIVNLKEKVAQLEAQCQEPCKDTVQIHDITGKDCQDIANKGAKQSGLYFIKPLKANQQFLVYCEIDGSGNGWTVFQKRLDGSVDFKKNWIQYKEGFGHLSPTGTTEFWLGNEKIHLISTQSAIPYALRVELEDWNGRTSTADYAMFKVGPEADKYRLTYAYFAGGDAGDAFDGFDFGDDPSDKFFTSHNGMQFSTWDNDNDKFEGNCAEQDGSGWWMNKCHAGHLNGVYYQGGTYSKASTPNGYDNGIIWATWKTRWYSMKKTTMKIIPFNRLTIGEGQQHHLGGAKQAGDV
Assay: ELISA, fibrin plate against fibrinogen plate, antibody at 10 µg/mL, absorbance at 492 nm
Description: Each of the antibody solutions (100 μL each) at 10 μg/mL was added to the fibrin plate and the fibrinogen plate, and allowed to stand at room temperature for 1 hour. After washing with TBS-T, Bethyl Anti-Human IgG-HRP (×1000 dilution) or Bethyl Anti-Mouse IgG-HRP (×10000 dilution) was added as a secondary antibody. Then, after washing with TBS-T, colorimetry was conducted with OPD for 10 minutes, and measurement was conducted at an absorption wavelength of 492 nm.

B1: Fib-0355 antibody (monoclonal antibody produced by hybridoma Fib-0355) (antibody, V domains shown)
VH: GPELKKPGETVKISCKASGYTFTNYGMNWVKQAPGKGLKWMGWINTNTGEPTYAEEFKGRFAFSLETSASTAYLQINNLKNEDTATYFCARLLDYWGQGTTLTVSS
VL: PSSLAVSAGEKVTMSCKSSQSVLYSSNQKNYLAWYQQKPGQSPKLLIYWASTRESGVPDRFTGSGSGTDFTLTISSVQAEDLAVYYCQQYLSSYTFGG
notes: Mouse hybridoma monoclonal antibody, detected with anti-mouse IgG-HRP; also called anti-β chain antibody
ratio of the affinity for insoluble fibrin to the affinity for fibrinogen (absorbance at 492 nm): 13 times

Source: patent US20160011217A1 (NATIONAL CANCER CENTER, published 2016)
